{
  "source": "IntAct's records for PubMed 18976803",
  "parents": {"B1": {"name": "Protein LDB19 (Saccharomyces cerevisiae), Q12502 (parent)", "chain": "MAFSRLTSTHQSNHNGYSNSNKKGQSLPLTLSIDVESPPCVLYGSAMESSGAVLSGLFTVTVVDPYSSAEDKSLKNTESNVSTTSKSLKRKSTFGSALSSRLSSLSASTSNISPSTSSTSISHSPTPANLRIMAGYTKITITSVTLSLVQKIHFHKPFVPNISSMQTCMNCKTKITNMKSWEIQSNTQDLSVGSHSYPFSYLIPGSVPCSSSLGATAETQVKYELIAVVTYIDPHRNSFSSGHSTPRKEGSSSKKRLLQLAMPIAVTRSIPRGPDKNSLRVFPPTELTAAAVLPNVVYPKSTFPLEMKLDGVSSGDRRWRMRKLSWRIEETTRVKAHACPVHKHELRQLEEQVKIKESEKSKKPRSHIKRYGELGPQIRVAVNSLENMPSQRLPGEPGREQAPNSSGPASTGNVGLDDENPVNEDEEDQPGSEFIHPSDDALRQELLMQQQRARQQQLQQELKNNSSLFTEEVRIISKGEMKSGWKTDFDNNGKIELVTEIDCMGLNSGVSNPVMHASTLQTPSTGNKKPSINVACDIQDPNLGLYVSHILAVEIVVAEETLQYANGQPIRKPNSKNKKETNNNTMNVHNPDQRLAELSPIFANRNTPKVRRMGPEDITPVNSNKSNHSTNKEKASNGASNSNIVSVPTGAARVLRMQFRLTVTERSGLGISWDEEVPPIYQDVELLSPPCYELSINNGIKNKLYSTMSTPVRSEDDFVGGSDEDIGNYESQGLEPGPNVQEVTITQNKLTIPPTAHHYQPASSSQRSLTTVQSPPLESVVSVQGSVPFRGHVLTPHSTRDIRIQNFSDFLDSNRITQ"}},
  "data": [
    {"variants_of": "B1", "settings": "with rsp5_yeast RSP5, P39940", "values": [
      {"variant": "P690A;Y692A", "effect of a mutation on the interaction": "decreasing interaction"},
      {"variant": "P679A;Y681A", "effect of a mutation on the interaction": "decreasing interaction"}
    ]}
  ]
}
